B1: KLLF peptide (peptide)
peptide: KLLFIGTIK
notes: synthetic 9-mer
B2: NTH peptide (peptide)
peptide: NTHTGTRPYK
notes: synthetic 10-mer
B3: GLI peptide (peptide)
peptide: GLIPTVLTLK
notes: synthetic 10-mer
B4: TVL peptide (peptide)
peptide: TVLTLKASFK
notes: synthetic 10-mer
B5: AAA peptide (peptide)
peptide: AAAEEASTTK
notes: synthetic 10-mer
B6: SVL peptide (peptide)
peptide: SVLSEQFTK
notes: synthetic 9-mer
B7: CSY peptide (peptide)
peptide: CSYASRDTYK
notes: synthetic 10-mer
B8: TVY peptide (peptide)
peptide: TVYKCSKCGK
notes: synthetic 10-mer
B9: RMS peptide (peptide)
peptide: RMSSFNRHMK
notes: synthetic 10-mer
B10: ASG peptide (peptide)
peptide: ASGKGRRTRK
notes: synthetic 10-mer
B11: KQL peptide (peptide)
peptide: KQLLNAHFRK
notes: synthetic 10-mer
B12: GTM peptide (peptide)
peptide: GTMKIHILQK
notes: synthetic 10-mer
B13: RMM peptide (peptide)
peptide: RMMLVSAWL
notes: synthetic 9-mer
B14: YAS peptide (peptide)
peptide: YASRDTYKL
notes: synthetic 9-mer
B15: ALE peptide (peptide)
peptide: ALEENVMVA
notes: synthetic 9-mer
B16: SLAE peptide (peptide)
peptide: SLAETAGLI
notes: synthetic 9-mer
B17: KLA peptide (peptide)
peptide: KLAVSLAET
notes: synthetic 9-mer
B18: VLE peptide (peptide)
peptide: VLEEEVELV
notes: synthetic 9-mer
B19: HAL peptide (peptide)
peptide: HALEENVMV
notes: synthetic 9-mer
B20: ILQ peptide (peptide)
peptide: ILQKHGENV
notes: synthetic 9-mer
B21: VLS peptide (peptide)
peptide: VLSEQFTKI
notes: synthetic 9-mer
B22: VLT peptide (peptide)
peptide: VLTVSNSNV
notes: synthetic 9-mer
B23: SVLE peptide (peptide)
peptide: SVLEEEVEL
notes: synthetic 9-mer
B24: MAA peptide (peptide)
peptide: MAATEISVL
notes: synthetic 9-mer

target: T1, HLA-A*11:01 with β2-microglobulin (human); experiment: folding test: HLA-monomer formation after 1, 3 and 7 days, gel filtration
T1 construct: Soluble recombinant HLA used in the folding test and in tetramer reagents

Row | binding result | Binder
1 | binds | B1
2 | binds | B2
3 | binds | B3
4 | binds | B4
5 | binds | B5
6 | binds | B6
7 | binds | B7
8 | binds | B8
9 | binds | B9
10 | binds | B10
11 | binds | B11
12 | binds | B12

target: T2, HLA-A*02:01 with β2-microglobulin (human); experiment: HLA tetramer reagent made of the RMM peptide and the HLA type, staining of induced CTLs, flow cytometry
T2 construct: Soluble recombinant HLA used in the folding test and in tetramer reagents; also called HLA-A2

Row | binding result | Binder
13 | binds | B13

target: HLA-A*24:02 with β2-microglobulin (human); experiment: as above

Row | binding result | Binder
14 | binds | B13

target: T2, HLA-A*02:01 with β2-microglobulin; experiment: folding test: HLA-monomer formation, gel filtration

Row | binding result | Binder
15 | binds | B14
16 | binds | B15
17 | binds | B16
18 | binds | B17
19 | binds | B18
20 | binds | B19
21 | binds | B20
22 | binds | B21
23 | binds | B22
24 | binds | B23

target: T2, HLA-A*02:01 with β2-microglobulin; experiment: folding test: HLA-monomer formation from HLA, β2-microglobulin and peptide, gel filtration

Row | binding result | Binder
25 | no binding (tested: 30 µM peptide) | B24

Reference: US20170298109A1 (SAPPORO MEDICAL UNIVERSITY, published 2017)
